Where no end group is shown, it is not given here. The star is where a group is joined. Biotin = O=C1N[C@H]2[C@H](CS[C@H]2CCCCC(=O)*)N1; TTDS = NCCCOCCOCCOCCCNC(=O)CCC(=O)*
T1: MAST2-1 (human)
T1 chain: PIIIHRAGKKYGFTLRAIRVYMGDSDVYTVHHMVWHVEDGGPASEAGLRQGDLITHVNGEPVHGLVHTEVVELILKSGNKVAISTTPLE


Columns and labels:
MAST2-1 [1] = molecular target: T1, MAST2-1; assay: FP; competitive FP with fRSK1 tracer
HTRA1-1 [2] = molecular target: HTRA1-1 (human); assay: FP; competitive FP with fRSK1 tracer
MAST2-1 [3] = molecular target: T1, MAST2-1; assay: FP
HTRA1-1 [4] = molecular target: HTRA1-1 (human); assay: FP

Chain of HTRA1-1 (human) (chain, as listed by the source): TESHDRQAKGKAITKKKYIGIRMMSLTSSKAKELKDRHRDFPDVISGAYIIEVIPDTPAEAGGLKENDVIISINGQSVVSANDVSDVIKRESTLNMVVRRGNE

Binder | Kd (MAST2-1 [1]) [µM] | Kd (HTRA1-1 [2]) [µM] | Kd (MAST2-1 [3]) [µM] | Kd (HTRA1-1 [4]) [µM]
{Biotin-TTDS}-DEDQHTQITKV [PTEN_11] | 3.14 | 45.1 | – | –
Fluorescein-KLPSTTL [fRSK1] | – | – | 6.87 | 64.8
